test: yeast display, Sf9 membrane polyspecificity reagent, FACS + sequencing; frameworks hold sequencing errors
Method in brief: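 Sorting gates, low and high (top ~1%), were placed on anti-HA fluorescence to track expression and on streptavidin fluorescence to track reagent binding. A clone's polyreactivity label is taken from the gate it came out of. The reagent was 10% biotinylated, detergent-solubilized Sf9 membrane, applied for 1 hour at 4 °C to galactose-induced yeast display cells.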

Sequence | polyreactivity (PSR sort gate)
QVQLLESGGGLVQAGGSLRLSCAASGSTLNVYGMGWYRQAPGQERELVAAINRDGITYADSVKGRCTISRDNAKNTVYLQMNSLKPEDTAVYYCAGDPYDNSVPGWRRNMDYWGQGTQVTVSS | low polyreactivity
QVQLLESGGGLVQAGGSLRLSCAASGWYRQAPGKERELVAAITYSGGSTYYADSVKGRFTISRDNAKNTVYLQMNSLKPEDTAVYYCAVATGLLYKSHGYWGQGTQVTVSS | low polyreactivity
QVQLLESGGGLVQAGGSLRLSCAASGYIILRNAMGWYRQAPGKERELVAAIRRTGGSTYYADSLKGRFTISRDNAKNTVYLLLNSLKPEDTAVYSCAKRSYTGFEYWGQGTQVTVSS | low polyreactivity
QVQLLESGGGLVQAGGSLRLSCAATGRIFAPYTMGWYRQAPGTEMEMFAVISKRGGNTYYADSVKGRFTISRDNAKNTVYLQMNSLKPEATAVYFCNADWQFRVYLGGPGTHGYDYWGQGTQVTVSS | low polyreactivity
QVQLLESGGGLVQAGGSLRLSCAPSGRTLVHYGMGWYRHAPGKERELVAAISYSGGRTYYADSVKGRVTISRDNAKNTVYLQMNSLKPEDTAVYYCAKDFGSYQRRYGYWGQGTQVTVSS | high polyreactivity
QVQLLESGGGLVQAGGSLRLSCMASGSILGDRMSWYLQPPGKEHELVATIYDGGITYYADSMKGRFTISRDNAKNTVYLQMNSLRPEDTAVYYCGASFEGYRYNVYCGQGTQVTVSS | low polyreactivity
QVQLLESGGGLVQAGGSLRLSCMASGSILGDRMSWYRQAPGKEHELVATIYDGGITYYADSMKGRFTISRDNAKNTLYLQMNSLRPEDTAVYYCGACFEGYRYHVYCGQGTQVTVSS | low polyreactivity
QVQLLESGGGLVQAGGSLRLSCPPSGFIFPRNVMGWYRQAPGKERELVAAISRSGGSTYYADSVKGRYTISRDNAKNTVYLQLNSQKPEDTAVYYCAAEIPVYQGTGDYDYWGQGTQVTVSS | low polyreactivity
QVQLLESGGGLVQAGGSLRLSFAASGSTSRKYAMGLYRQAPGKERVLVAGITKGGGGTYYADSVKGRFTISRDNAKNTVYLLMNSLKPEDTAVYYCAKYYGSGYYIYDYWGLGTQVTVSS | low polyreactivity
QVQLLESGGGLVQAGGSLRLTCAASGRTFGRYAKGWYRQAPGKERELVADITGGGSTNYADSVKGRFTISRDNAKNTVYLQMKSLKPEDTAVYYCAAGFHKRVTPEILYDYWGQGTQVTVSS | low polyreactivity
QVQLLESGGGLVQAGGSLRLTCAASGSTFRYNAMGWYRQAPGKERELVAAISSGSSTNYADSVKGRFTLSRDNAKNTVYLQMNSLKPEDTAVYYCAAQPGYYDDFYYWGQGTQVTVSS | low polyreactivity
QVQLLESGGGLVQAGRSLRLSCAASGSIFRSYAMGWSRQAPGKERELVAAISRRGGSTYYADSVKGRFTISRDNAKNTVYLQMNSLKPEDTAVYYCAADRTGPYDYWGQGTQVTVSS | high polyreactivity
QVQLLESGGGLVQEGGSLRLSCAASGFIFSKNVMGWYRHAPGKERELVARITRSGGTTYYADSVKGRFTISRDNAKYTVYLQMNSLKPEDTAVYYCAARRYGYTSITWYDYWGQGTQVTVSS | high polyreactivity
QVQLLESGGGLVQEGGSLRLSCAASGSTFHSYAMGWYRQAPGKERELVAGINRTGGSTYYADSVKGRFTISRDNAKNTVYLQMNSLKPEDTAVYYCAAVSYYASVYRYDYWGQGTQVTVSS | low polyreactivity
QVQLLESGGGLVQPGGSLRLSCAASGRTFRLNGMGWNRQAPGKERELVAAITWSGGRTYYADSVKGRFTISRDNAKKTVYVQMNSLTPEDTAVYYCAADFRDGFTSRYGYWGQGTQVTVSS | high polyreactivity
QVQLLESGGGLVQSGGSLRLSCAASGRNFTPYAMGWYRQAPGKERELVAAITGSGGITYYADSVKGRFTISRDNAKNTVYFQMNSLKPVDTAVYYCAKDWWQSDSVGDYTHYEYDYWGQGTQVTVSS | low polyreactivity

Sequence | polyreactivity (PSR sort gate)
QVQLLESGRGLVQAGGSLRLSCAASGRTFVGYAMVWYRKAHGKERELVAGITASGGTTYYADSVKGRFTISRDNAKNTVYLQMNSLKPEDTAVYYCATTTTRYRYKKNYYWGQGIQVTVSS | high polyreactivity
QVQLLESGRGLVQAGGSLRLSCAPSGLTFRYMAMGWYIQAPGKERELVAAINSGGRTNYADSVKGRFTISRDNAKNTVFLQMNSLKPEDTAVYYCAAVRHWTVGWTYYYWGQGTQVTVSS | high polyreactivity
QVQLLESWGGLVHAGGSVRLSCAASGSIFGYNAMGWYRESPGKEREWVAAISWDGGSTYYADSVKGRFTISRDNAKYNVFLQMNSLKPEDTAVYYCAAEGLRFVYEYWGQGTQVTVSS | low polyreactivity
QVQLLESWGGLVQAGGSLRLSCAASGSIFSYYAMGWYRQAPGKERELVATISSGDSTYYADTVKGRFTISRDNAKNTVYLQMHSLNPEDTEVYYCARKPRIRYYPAPYDYWGQGTQVTVSS | low polyreactivity
QVQLLETGGGLVQAGGSLRLSCAASGSIFSRNDMGWYRPAPGKERELVAAITWSGGSTYYADSVKGRFTISRDNAKNTVYLQMNSLKPEDTAVYYCATRYTRVYDCWGQGTLVTVSS | high polyreactivity
QVQLLGSGGGLVQACGSLRLSCSASGSISHYIFMGWYRQAPAKEREFVAGIGYGGTTNYADSVKGRFTISRDNAKNTVYLQMNSLKPEDTAMYYCAAREATAFYLYYCGQGTQVTVSS | low polyreactivity
QVQLQASGVGLVQSGGSLRLSCASRGTNFTARFMGWYRQAPGKERELVATITDGGNTNHADRVKGRFTISRDNAKNTVYLQMNSLKPEDAAVYYCAAGEVDNDTLLYWGQGSQVTVSS | low polyreactivity
QVQLQEGGGGLVQAGGSLRLSCAASGYISYGDVMGWYRQAPGEERELVASIGLDATTNYADSVKGRFTISRDNAKITVYLQMNSLKPEATAVYYCAADVGSGVMCGYWGQGTQMTVSS | high polyreactivity
QVQLQEGGGLVQAGGSLRLSCAASGYISSRPAMGWYRQAPGKERAFVATIADGTSTYYADSVKGRFTISRDNAINTVYLQMNSLKPEDTSVYYWAAAYNTEFDLSYWGQGTQVTVSS | high polyreactivity
QVQLQEGGGLVQAGGSLRLSCAASGYISSRPAMGWYRQAPGLERAFVATIADGTSTDYADSVKGRFTISRDNAKNTVYLQMYRLQPEDTAVNYCAAAYNTQYYLSYWGQGTQVTVRS | high polyreactivity
QVQLQERAAWCRRAGSLRLSCAASGNISDYYFMGWYRQAPGKERELVAAIAPGSNTYYADSVKGRFTISRDNAKNTVYLQMNSLKPEDTAVCFCAADSTQYTWFDYWGQGTQVTVSS | low polyreactivity
QVQLQESAGGLVQAGGSLRLRCSASGYSSCDASMGWYRQAPGKERELAASITKGSSTNYADSVKGRFTIRDNAKNTVYLQMNSLKPEDTAVWYCGVTYPYWGDYTYWGKGTQVTVSS | low polyreactivity
QVQLQESAGVLVQAGGSLRLRCSASGYISCHASMGWYRQAPGKEGELAASITKGSSTNYADSVKGRFTIRDNAINTVFLQMNSLKPEDTAVCYCAVTYPYWGDYTYWGQGTQVTVSS | low polyreactivity
QVQLQESCGGLVQAGGSLRLSCAASGTIITARFMGWYRQAPGKERELVATITDGGNNNHAESVKGRFTISRDNAKNTVYLQMNSLKPEDAAVYYCAAGEVDNDTLLYWGQGSQVTVSS | low polyreactivity
QVQLQESGDGLVQAVGSLRLSCAASGNISGDYYMGWYRQAPGKERELVAGIDAFGSSTNYADCVKGRFTISRDNAKNTVYLQMNRLKPEDTAVYYCAARPDGDRLFSYWGQGTQVTVSS | low polyreactivity
QVQLQESGDGLVQAVGSLRLSCAASGYISGYYYMGWYRQAPGKERELVAGIDAFGSSTNYADCVKGRFTISRDNAKNTVYLQMNSPNPEDTAVYYCAAEFDDWDYHSYWGQGTQVSVSS | low polyreactivity

— the nanobody polyreactivity screen of Harvey et al. (2022)
